In patent publication US20090053213A1 (MorphoSys, published 2009):

T1: human M-CSF (human, UniProt P09603 33-190, limits assumed)
T1 construct: Bought recombinant protein
T1 sequence (looked up): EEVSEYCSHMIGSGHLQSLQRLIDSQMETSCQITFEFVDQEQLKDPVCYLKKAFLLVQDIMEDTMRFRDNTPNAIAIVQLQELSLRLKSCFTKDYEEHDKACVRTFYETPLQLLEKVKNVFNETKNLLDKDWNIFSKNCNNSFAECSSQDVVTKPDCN

T2: rat GM-CSF (rat, UniProt P48750 18-144)
T2 construct: Bought recombinant protein; also called rat-GM-CSF (Peprotech); rat recombinant GM-CSF
T2 sequence (looked up): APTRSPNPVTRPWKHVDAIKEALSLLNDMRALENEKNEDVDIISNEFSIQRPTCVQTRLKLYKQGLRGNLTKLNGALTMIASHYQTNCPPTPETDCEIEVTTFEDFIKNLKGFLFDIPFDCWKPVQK

T3: human IL-5 (human, UniProt P05113 20-134)
T3 construct: Bought recombinant protein
T3 sequence (looked up): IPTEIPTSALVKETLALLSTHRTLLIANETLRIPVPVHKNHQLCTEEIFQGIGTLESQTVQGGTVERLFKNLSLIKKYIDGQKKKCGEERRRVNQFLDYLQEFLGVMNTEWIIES

T4: human IL-3 (human, UniProt P08700 20-152)
T4 construct: Bought recombinant protein
T4 sequence (looked up): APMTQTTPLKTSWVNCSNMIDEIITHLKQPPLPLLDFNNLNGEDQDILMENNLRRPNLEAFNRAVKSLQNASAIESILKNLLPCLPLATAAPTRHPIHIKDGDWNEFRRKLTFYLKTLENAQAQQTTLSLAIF

T5: human IL-4 (human, UniProt P05112 25-153)
T5 construct: Bought recombinant protein
T5 sequence (looked up): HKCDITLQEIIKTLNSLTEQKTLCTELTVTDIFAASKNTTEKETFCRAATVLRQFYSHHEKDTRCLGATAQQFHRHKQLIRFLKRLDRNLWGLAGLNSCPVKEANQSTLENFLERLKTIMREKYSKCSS

T6: mouse GM-CSF (mouse, UniProt P01587 18-141)
T6 construct: Bought recombinant protein
T6 sequence (looked up): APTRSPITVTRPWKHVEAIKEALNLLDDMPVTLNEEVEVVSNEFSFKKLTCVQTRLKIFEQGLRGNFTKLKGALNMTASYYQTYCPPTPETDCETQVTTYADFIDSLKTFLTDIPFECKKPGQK


Experiments:
human M-CSF = target: T1, human M-CSF; test: SPR (Biacore 3000), Fab captured on anti-F(ab)2, cytokine as analyte
Method: (§1) This was performed in a capture set-up by surface plasmon resonance (Biacore 3000, Uppsala, Sweden).
(§2) CM5 chips (Biacore, Sweden) were coated with 5000-6000 RU anti-F(ab)₂ (Dianova, Affinipure F(ab)₂ Fragment Goat Anti-Human IgG, F(ab)₂ Fragment specific); 80 μg/ml 10 mM acetate buffer, pH4 on all 4 flow cells, using standard EDC-NHS amine coupling chemistry. […] After capturing of the specific Fab, buffer was injected, to determine the dissociation of anti-Fab/Fab interaction. In a following cycle, the analyte growth factor was injected (20 μl, flow rate 20 μl/min) at a concentration range between 15 and 2000 nM for the determination of the specific signal. Afterwards the achieved buffer sensogram was manually subtracted from the specific one. After each cycle, the flow cells were regenerated with 100 mM HCl (5 μl).

rat GM-CSF [1] = target: T2, rat GM-CSF; test: as above
Method: as §1, §2

human IL-5 = target: T3, human IL-5; test: as above
Method: as §1, §2

human IL-3 = target: T4, human IL-3; test: as above
Method: as §1, §2

human IL-4 = target: T5, human IL-4; test: as above
Method: as §1, §2

human IL-13 = target: T7, human IL-13 (human, UniProt P35225 35-146); test: as above
T7 construct: Bought recombinant protein
T7 sequence (P35225 35-146 limits assumed): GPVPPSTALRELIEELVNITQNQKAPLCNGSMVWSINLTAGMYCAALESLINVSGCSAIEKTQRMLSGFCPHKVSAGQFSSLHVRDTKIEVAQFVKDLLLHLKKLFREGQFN
Method: as §1, §2

mouse GM-CSF = target: T6, mouse GM-CSF; test: as above
Method: as §1, §2

human GM-CSF [2] = target: T8, human GM-CSF (human, UniProt P04141 18-144); test: solution equilibrium titration (SET, ECL/BioVeris), Fab with human GM-CSF (Leucomax) in solution
T8 construct: mature; the preparation is named under assay or readout; also called hGM-CSF; recombinant human GM-CSF
T8 sequence (P04141 18-144): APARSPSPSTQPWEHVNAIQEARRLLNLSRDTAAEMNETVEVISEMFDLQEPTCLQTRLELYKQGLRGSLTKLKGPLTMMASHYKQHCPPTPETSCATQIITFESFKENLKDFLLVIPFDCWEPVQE

human GM-CSF [3] = target: T8, human GM-CSF; test: cell-based or functional assay
human GM-CSF [4] = target: T8, human GM-CSF; test: cell-based or functional assay; remark: listed apart in the source
human GM-CSF [5] = target: T8, human GM-CSF; test: SPR (Biacore), Fab over immobilized recombinant human GM-CSF (Peprotech), F1 chip; affinity estimated from off-rates
Method: A respective amount of HSA was immobilized on the reference flow cell. […] Fab was applied in concentration series of 6.3-200 nM at a flow rate of 20 μl/min.

human GM-CSF [6] = target: T8, human GM-CSF; test: FACS receptor inhibition assay: antibody pre-incubated with 0.5 µg/ml biotinylated GM-CSF, binding to GM-CSF receptor alpha on CHO-GMRa#11 cells
Method: (§3) All stainings were performed in round bottom 96-well culture plates (Nalge Nunc) with 1-5×10⁵ cells per well. […] Cells were then washed once with 150 μl FACS buffer/well and taken up in 100 μl phycoerythrin-labeled streptavidin (BD Biosciences Pharmingen) which has been diluted 1:400 in FACS buffer. […] IC₅₀ values were determined from the dose response curves obtained using GraphPad Prism v3.03 software applying a non-linear regression curve fit.
(§4) IC₅₀ values were determined from the dose response curves obtained using GraphPad Prism v3.03 software applying a non-linear regression curve fit.

human GM-CSF [7] = target: T8, human GM-CSF; test: cell-based or functional assay; remark: listed apart in the source
human GM-CSF [8] = target: T8, human GM-CSF; test: FACS receptor inhibition assay: inhibition of binding of 0.5 µg/ml biotinylated GM-CSF to GM-CSF receptor alpha on CHO-GMRa#11 cells
Method: as §3, §4

rat GM-CSF [9] = target: T2, rat GM-CSF; test: solution equilibrium titration (SET), Fab with rat GM-CSF (Peprotech) as analyte in solution
[10] = target: macaca mulatta (rhesus) GM-CSF (Macaca mulatta (rhesus)); test: cell-based or functional assay
rat GM-CSF [11] = target: T2, rat GM-CSF; test: solution equilibrium titration (SET), IgG1 with rat GM-CSF (Peprotech) as analyte in solution
rat GM-CSF [12] = target: T2, rat GM-CSF; test: SPR (Biacore 3000), Fab captured on anti-F(ab)2, rat GM-CSF as analyte
Method: as §1, §2

| Kd (human GM-CSF [2]) | inhibition of TF1 cell proliferation at 2 µM Fab, human GM-CSF (Leucomax) 0.25 ng/ml (human GM-CSF [3]) | IC50 (pM) in TF-1 proliferation assay, human GM-CSF (human GM-CSF [4]) | Kd (human GM-CSF [5]) | IC50 (human GM-CSF [6]) | IC50 (pM) in TF-1 proliferation assay, human GM-CSF 0.25 ng/ml (human GM-CSF [7]) | % inhibition at 5 µg/ml antibody (human GM-CSF [8]) | Kd (rat GM-CSF [9]) | IC50 (pM) in TF-1 proliferation assay, macaca GM-CSF (HEK293) [10] | Kd (rat GM-CSF [11]) | binding result (rat GM-CSF [12]) | Binder | binding result (human M-CSF) | binding result (rat GM-CSF [1]) | binding result (human IL-5) | binding result (human IL-3) | binding result (human IL-4) | binding result (human IL-13) | binding result (mouse GM-CSF) |
| --- | --- | --- | --- | --- | --- | --- | --- | --- | --- | --- | --- | --- | --- | --- | --- | --- | --- | --- |
| 11.4 nM | > 50% | > 200000 pM |  |  |  |  |  |  |  |  | MOR03682 Fab (Fab, V domains shown, Parental HuCAL GOLD Fab with C-terminal FLAG and 6xHis tags) VH: QVQLVQSGAEVKKPGSSVKVSCKASGGTFNSFLISWVRQAPGQGLEWMGGIIPIFGTANYAQKFQGRVTITADESTSTAYMELSSLRSEDTAVYYCARKFISDSWGQGTLVTVSS VL: DIQMTQSPSSLSASVGDRVTITCRASQTINNYLNWYQQKPGKAPKLLIYTASNLQSGVPSRFSGSGSGTDFTLTISSLQPEDFAVYYCQQYSGSPMTFGQGTKVEIKR | no binding (tested: analyte 15 to 2000 nM) | no binding (tested: analyte 15 to 2000 nM) | no binding (tested: analyte 15 to 2000 nM) | no binding (tested: analyte 15 to 2000 nM) | no binding (tested: analyte 15 to 2000 nM) | no binding (tested: analyte 15 to 2000 nM) | no binding (tested: analyte 15 to 2000 nM) |
| 16 nM | > 50% |  | 6.42 nM | > 400 nM | > 200000 pM | ~25% |  |  |  |  | MOR03684 Fab (Fab, V domains shown, carries two C-terminal tags (FLAG and 6xHis); also called antibody no) VH: QVQLVESGGGLVQPGGSLRLSCAASGFTFSSHWMSWVRQAPGKGLEWVSNGIFSDGSATYYADSVKGRFTISRDNSKNTLYLQMNSLRAEDTAVYYCARFQGYGGGFDYWGQGTLVTVSS VL: DIELTQPPSVSVAPGQTARISCSGDNLPGKYVHWYQQKPGQAPVLVIYYDSNRPSGIPERFSGSNSGNTATLTISGTQAEDEADYYCQSRTQTTIVFGGGTKLTVLG | no binding (tested: analyte 15 to 2000 nM) | no binding (tested: analyte 15 to 2000 nM) | no binding (tested: analyte 15 to 2000 nM) | no binding (tested: analyte 15 to 2000 nM) | no binding (tested: analyte 15 to 2000 nM) | no binding (tested: analyte 15 to 2000 nM) | no binding (tested: analyte 15 to 2000 nM) |
|  |  |  |  |  |  |  | 1 nM |  |  |  | MOR04357 Fab (Fab, V domains shown, X-cloned Fab (VH of MOR04252 x VL of MOR04302) with FLAG and 6xHis tags; also called Fab MOR04357) VH: QVQLVESGGGLVQPGGSLRLSCAASGFTFSSYWMNWVRQAPGKGLEWVSGIENKYAGGATYYAASVKGRFTISRDNSKNTLYLQMNSLRAEDTAVYYCARGFGTDFWGQGTLVTVSS VL: DIELTQPPSVSVAPGQTARISCSGDSIGKKYAYWYQQKPGQAPVLVIYKKRPSGIPERFSGSNSGNTATLTISGTQAEDEADYYCSAWGDKGMVFGGGTKLTVLG |  |  |  |  |  |  |  |
|  |  |  |  |  |  |  |  | 15 pM | 0.13 nM |  | MOR04357 IgG1 (antibody, V domains shown, expressed in HKB11 cells; also called IgG1 MOR04357) VH: QVQLVESGGGLVQPGGSLRLSCAASGFTFSSYWMNWVRQAPGKGLEWVSGIENKYAGGATYYAASVKGRFTISRDNSKNTLYLQMNSLRAEDTAVYYCARGFGTDFWGQGTLVTVSS VL: DIELTQPPSVSVAPGQTARISCSGDSIGKKYAYWYQQKPGQAPVLVIYKKRPSGIPERFSGSNSGNTATLTISGTQAEDEADYYCSAWGDKGMVFGGGTKLTVLG |  |  |  |  |  |  |  |
| 2 nM | > 50% |  | 4.26 nM | 35 nM | > 200000 pM | ~60% |  |  |  | binds | MOR03929 Fab (Fab, V domains shown, Parental HuCAL GOLD Fab with C-terminal FLAG and 6xHis tags) VH: QVQLVESGGGLVQPGGSLRLSCAASGFTFSSYWMNWVRQAPGKGLEWVSGISYSGSETYYADSVKGRFTISRDNSKNTLYLQMNSLRAEDTAVYYCARGFGTDFWGQGTLVTVSS VL: DIELTQPPSVSVAPGQTARISCSGDSIGKKYAYWYQQKPGQAPVLVIYKKRPSGIPERFSGSNSGNTATLTISGTQAEDEADYYCSSWDSTGLVFGGGTKLTVLG |  |  |  |  |  |  |  |
